# Test results reported in US20200231654A1 (published 2020).
# Substitutions are numbered along the chain they refer to. Where two headings read alike, the source gives them in different places.
# B1: active MMP-9-binding peptide M91011 (designed binder)
# chain: GSGMKETAAAKFERQHMDSPDLGTDDDDKAMADIGSANSDPQFGLFSKYRTPNCMMYKYAQCSHKSQPVCGSDMSTYANECTLCMKIREGGHNIKIIRNGPCGASAAA
# B2: active MMP-9-binding peptide M91002 (designed binder)
# chain: GSGMKETAAAKFERQHMDSPDLGTDDDDKAMADIGSANSDPQFGLFSKYRTPNCRTGRGPACQMGFQPVCGSDMSTYANECTLCMKIREGGHNIKIIRNGPCGASAAA
# B3: active MMP-9-binding peptide M91005 (designed binder)
# chain: B2 chain with T56K, G57R, R58G, A61S, G65S, F66Y, Q67N
# What was measured:
# [1] = biological target: active hMMP-9(cat)_Y423A (UniProt P14780 107-449); assay: substrate peptide enzyme inhibition
# [2] = biological target: active hMMP-9(cat)_R424T (UniProt P14780 107-449); assay: substrate peptide enzyme inhibition
# [3] = biological target: active hMMP-9(cat)_Y393A (UniProt P14780 107-449); assay: substrate peptide enzyme inhibition
# [4] = biological target: active hMMP-9(cat)_Y420A (UniProt P14780 107-449); assay: substrate peptide enzyme inhibition
# [5] = biological target: active hMMP-9(cat)_V398A (UniProt P14780 107-449); assay: substrate peptide enzyme inhibition
# [6] = biological target: active hMMP-9(cat)_M422I (UniProt P14780 107-449); assay: substrate peptide enzyme inhibition
# [7] = biological target: active hMMP-9(cat)_L397A (UniProt P14780 107-449); assay: substrate peptide enzyme inhibition
# [8] = biological target: active hMMP-9(cat)_F192A (UniProt P14780 107-449); assay: substrate peptide degradation inhibition
# [9] = biological target: active hMMP-9(cat)_P193A (UniProt P14780 107-449); assay: substrate peptide degradation inhibition
# [10] = biological target: T1, active hMMP-9(cat)_His6 (UniProt P14780 107-449); assay: enzyme inhibition; substrate peptide
# [11] = biological target: T1, active hMMP-9(cat)_His6; assay: enzyme inhibition; substrate peptide; remark: listed apart in the source
# [12] = biological target: active hMMP-9(cat)_L187A (UniProt P14780 107-449); assay: substrate peptide degradation inhibition
# Sequence of active hMMP-9(cat)_L187A (P14780 107-449 L187A): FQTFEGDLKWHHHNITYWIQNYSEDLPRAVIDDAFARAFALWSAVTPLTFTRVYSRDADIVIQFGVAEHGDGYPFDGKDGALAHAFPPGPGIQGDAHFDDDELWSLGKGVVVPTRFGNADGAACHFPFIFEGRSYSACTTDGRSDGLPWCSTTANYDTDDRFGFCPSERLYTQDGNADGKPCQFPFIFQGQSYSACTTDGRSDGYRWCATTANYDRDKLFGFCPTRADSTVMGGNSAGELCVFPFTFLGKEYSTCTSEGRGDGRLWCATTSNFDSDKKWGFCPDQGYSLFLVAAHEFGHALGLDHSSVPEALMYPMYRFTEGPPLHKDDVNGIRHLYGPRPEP
# Sequence of active hMMP-9(cat)_P193A (P14780 107-449 P193A): as the sequence (P14780 107-449 L187A) above, with A81L, P87A counted along it
# Sequence of active hMMP-9(cat)_L397A (P14780 107-449 L397A): as the sequence (P14780 107-449 L187A) above, with A81L, L291A counted along it
# Sequence of active hMMP-9(cat)_F192A (P14780 107-449 F192A): as the sequence (P14780 107-449 L187A) above, with A81L, F86A counted along it
# T1 sequence (P14780 107-449): as the sequence (P14780 107-449 L187A) above, with A81L counted along it
# Sequence of active hMMP-9(cat)_Y423A (P14780 107-449 Y423A): as the sequence (P14780 107-449 L187A) above, with A81L, Y317A counted along it
# Sequence of active hMMP-9(cat)_Y393A (P14780 107-449 Y393A): as the sequence (P14780 107-449 L187A) above, with A81L, Y287A counted along it
# Sequence of active hMMP-9(cat)_M422I (P14780 107-449 M422I): as the sequence (P14780 107-449 L187A) above, with A81L, M316I counted along it
# Sequence of active hMMP-9(cat)_R424T (P14780 107-449 R424T): as the sequence (P14780 107-449 L187A) above, with A81L, R318T counted along it
# Sequence of active hMMP-9(cat)_V398A (P14780 107-449 V398A): as the sequence (P14780 107-449 L187A) above, with A81L, V292A counted along it
# Sequence of active hMMP-9(cat)_Y420A (P14780 107-449 Y420A): as the sequence (P14780 107-449 L187A) above, with A81L, Y314A counted along it
Binder,IC50 [1] [nM],IC50 [2] [nM],IC50 [3] [nM],IC50 [4] [nM],IC50 [5] [nM],IC50 [6] [nM],IC50 [7] [nM],IC50 [8] [nM],IC50 [9] [nM],IC50 [10] [nM],IC50 [11] [nM],IC50 [12] [nM]
B1,> 330,45,> 950,33,79,43,57,83,110,–,–,–
B2,–,–,–,–,–,–,–,–,–,5,–,–
B3,230,31,48,54,39,45,37,> 1000,13,–,1.1,120
